Among the data in a protein production outcome set (Wang et al. 2014) are protein production values, retold here.

This data set in a line: label from the status in PepcDB records.
Regarding “MRILIPFKANNPKSRLSSILSEEERKELARLMLLDVIDAAKPFGEIKVVCPSELDVEGVEVVVDTSDLNTTVNKVMDEAPLAVIMSDLPLLSEEVLKRFFETEGDVVVAPGRKGGTNMLLVRKRGFRVSYHFGSFFKHLEMARKMGMKAKIFDSFYSSVDIDDESDLLELMMHGSGKKSYEFLRKIGFSVSFEETPRLERRVFMQ”, the protein production entry is recorded as “failed”.

In the case of “MFPYKIVDDVVILMPNKELNIENAHLFKKWVFDEFLNKGYNKIFLVLSDVESIDSFSLGVIVNILKSISSSGGFFALVSPNEKVERVLSLTNLDRIVKIYDTISEAMEEVRRK”, the protein production result was “not failed”.

With “MPRPSLRRGEETSGARSLHEIAPPAEKAVRKPLNLLPFRKDTPMTKDSYFHKSRAGVAGAPLFVLLHGTGGDENQFFDFGARLLPQATILSPVGDVSEHGAARFFRRTGEGVYDMVDLERATGKMADFIKANREHYQAGPVIGLGFSNGANILANVLIEQPELFDAAVLMHPLIPFEPKISPAKPTRRVLITAGERDPICPVQLTKALEESLKAQGGTVETVWHPGGHEIRSGEIDAVRGFLAAYGG”, the protein production result was “not failed”.

Take “MKKRLLLFILVLGVCLFTSCGNFVKTNIYFSAAESAFDSGKYEDAIKYYDKVIEADSGNAMAYLGKGLALDALGKYEEALEFFDKAIEINKDLAKAYNAKGTTLASLERYEESLENFKKAAELKPKNSAYQNDVAYGLNNLGRFEEAIQYAEKALKLNPRSGVAYSNKGFALDALGKLDEAIECYDKAIELSPTYTNAYYNKSIAVFKMGKTEEAIELLDKVLEIDPDDLDAITSKGYCLNELGKYEKAIECFDTAIEKYPKDPYPYVCKATSLYYLGKYDNALEECNKAIKLEYTFPDSYIWKAKILVEKGDIEEARKSCDEFLAIAEDASVYDMKGQIYLHEYNYPEAIKLFDKAIEVDPSYEDSYINKIYCLYLQKNYKECIEFATKVQTIFPNSADIPWYIGDCYSIMMEPEKAIEYLKKAHELNPKDVGILTSIAWEYYSLEDYAKASEYAEKAAEISADDESVKYIREKLENQKLPEAEQIVEFVKNNYLYYDKIANFEALANEFKAKGEVGVKDICNFIESIRQKDDMFTFVIHGDDYDLLKYEESISQVTSQQLEPNIHYIKIKSFTASVSWEFKEIIDSIENPEEKVLVIDLRDNLGGLATSSADILDYLLPACTTSYIVYRDGYMYSYYSDAAQTKFKKILVLVNEYSASSSEILALGLKKHLNNVVIIGRPTVGKGVGQLVYENKSKKYMIYLVSFYWNVMEENILGKRIEPDVYVNSSSDAAYMNEVKRQAAR”: the protein production entry is reported as “failed”.

Consider “MTKEPRNLSEWIKELKKASREAVILVEGKNDKKALSKFSIKNVIDLSGKRYADVVDMLEGKWEKVILLFDLDTHGERINQKMKELLSSQGFLVDENFRNFLKKWNIIHIEEINGGKNS”, for which the protein production result is given as “not failed”.

For the sequence “MIDVIGTDAGAPASLPAAQQALIRAAEQIAAPRRLQPALETWLESPVPLIDSDDPRHLVEVLSALSAQTNAVVLASGDPLWFGIGRILAERLGPERLRFHPAPTSLQLAFARIGRPWQDARWVSLHGRDPEPLARELQTRPRALAVLTDPGRGGADAVRRCLRSSGLEASYQLWLGENLGHADERMRLIPADAPLPEPLQPLLVALLIAEEPSIPNSRALPLFGLEDGLYLQHPDHPGLMTKREARIQLLADLDLPDQGVLWDLGAGTGSIGLEALRLRPQLRLLAVERRAGGAALIQANAKRLEVMPSAVVETDALSLLSADLPDGLDQPDRVLLGGGGPHREALLKAVLQRLRPSGIVVIPLATLEAVATLRPLMEQSGLTVQLNQLQAWRGQPLSDGTRLAPMNPILSLKGT”, the protein production entry is listed as “failed”.

In the case of “MEGESVKLSSQTLIQAGDDEKNQRTITVNPAHMGKAFKVMNELRSKQLLCDVMIVAEDVEIEAHRVVLAACSPYFCAMFTGDMSESKAKKIEIKDVDGQTLSKLIDYIYTAEIEVTEENVQVLLPAASLLQLMDVRQNCCDFLQSQLHPTNCLGIRAFADVHTCTDLLQQANAYAEQHFPEVMLGEEFLSLSLDQVCSLISSDKLTVSSEEKVFEAVISWINYEKETRLEHMAKLMEHVRLPLLPRDYLVQTVEEEALIKNNNTCKDFLIEAMKYHLLPLDQRLLIKNPRTKPRTPVSLPK”, the protein production entry is given as “not failed”.

In the case of “MITIKKQEIVKLEDVLHLYQAVGWTNYTHQTEMLEQALSHSLVIYLALDGDAVVGLIRLVGDGFSSVFVQDLIVLPSYQRQGIGSSLMKEALGNFKEAYQVQLATEETEKNVGFYRSMGFEILSTYDCTGMIWINREK”, the protein production entry is listed as “not failed”.

On to “MQAYVLHFIALVIMSLTGTTSGAFAQNGQSTEVSGPIEDRVPHRHQERPGERMPADYGTPRLLNLGAHTFPVSTSNQLAQQYMNQGLNLSYAFNHAEAGRAFREAARLDPALAMAYWGQALVLGPNINAPMEAKNEVSALELVRKAASLAAGVSDRERALIGALEKRYTGNSEDRKANDKAYANAMREVHRRFSGDQDIAMLFVESVMDTSPWGYWMRDDYPMEGTREIVAVTEGVLQGNPRHPGATHMYIHLMEPTNMPERAAQAADTLLTLMPDAGHLIHMPSHIYLRVGRYEDAIIANQRAIAADVRYLVRQHEHGFYAMAYFPHNIHFLGAAATADGQSELAIDSARKVASTIDDAVLKEMPMTGVFRVVPYWALTRFGKWDEMLQEPEPPSSNAFLKGGWHYARGLAFVAKRQLSEAEQELAALREIMKDDSLDGPLLSVNTARSVLRIGPAVLAGEIAAARGQFNSAIAHLEQAVRLEDSLAYTEPPEWQAPPRLTLGAILLEAGHPAEAETVYWEDLRRNRNNGWALYGLLQALRAQGKNERAALVEERFNKAWARADVKLGASRFGCVFSPMTMAGQSR”, for which the protein production result is listed as “failed”.

On to “MEAIRVFGPKLGSRLSIRSHTTAFPACKLSRFPLTSFPGKHAHLVLLKATTIPLASGDKENNRKFEKLGPSEWGNQFLFAHVDLSEMDALEREIEALKPKVRDMFMSFKGMKSNKKNLFLIYLLVSLGLAHHFEDEIEESVKGCSQEMVEMMDGENDLYTVSIIFWVFRTYGHNISSDIFNRFKGHNGKFKECLATDAKGILSLYEAAHMGTTTDYILDEALSFTLSYLESLAANGTCKPNLVRRIRNALGLLQNKNVEILVAKEYIRFYEQEEDCDKTILEFSMLNLKFLQLHYLQELKLLTKWYKEQDFESKLPPYYRDRIVELHLATLAYINPKYSRVRIILTMIYTIQIILDDTCDRYASLREVESLAATIERWDHNDHAMEGLPDYLKSVAKFIFHTFQEFEREVSSESGGSYSLKATIEDCKRMMRSNLQLAKWAVTGHLPSFDEYLDVAGVEIAVYFTVAGILLGMENINKKEAYEWLIFRDKLVRAMSTKARLVNDLFGYKDDMRRGYVTNSINCYKKQYGVTEEEAFRKLHQMVADGDKMMNEEFLKPINVPHQVLKAVLDTLRAINICYDNEDGFTRLNGNLKNYITSMYVDL”, for which the protein production result is reported as “failed”.

Consider “MAIGERIHFFRLLRGMTQKYLGTAVGFPERSADVRLAQYETGSRKPKADLTAALAQVLDVSPQALDVPDIDSQIGLMHTLFTLEDVYGLTISEADGEVCLKVNKDKGKKAYELLQMLYVWKEQADKLSAGEISKDDYDRWRYYYPKYDTTQLWAKVPSQQLSDTLVEAFQDKLKKDELEHHHHHH”, for which the protein production entry is listed as “failed”.

In the case of “MKLTKGKVLLAGCMAMAMSHSVLAQDIKVAIVGAMSGPVAQYGDMQFTGARQAIADINASGGIKGDKLVGVEYDDACDPKQAVAVANKVINDGIRYVIGHLCSSSTQPASDIYEDEGVIMITPAATNADLTTRGYKMIMRTTGLDSDQGPTAAKYIVETIKPKRIAVVHDKQQYGEGLARSVRDSLKEQGAEVVLFEGVTAGDKDFSTLVARLKKENVDFVYFGGYYPEMGQILRQAKQAGLTARFMGPEGVGNSSLSNIAGEASEGMLVTLPKRYDQVPANQPIVDALKAKKLDPTGPFVWTTYAALQSLTTAMERTGSKEPADLANDLKTGKPVETVMGPLSWDDKGDLKGFEFGIFEWHADGSSTAVK”, the protein production result is “failed”.

For the sequence “NIILASRSLDKCYAIKESMLKKGLGEIGVEQVDADDTQALVALIQKYKPKVVINVALPYQDLTIMQACLETKTHYIDTANYEHPDLAKFEYKEQWAFDRAYKEVGILGVLGAGFDPGVTNAYVAHAQKHHFDTIHTLDILDCNAGDHKRPFATNFNPEINL”, the protein production entry was “failed”.

For “MTTKAVLISSGVATVALLLKLSVPVAVDFSVSRAPILWSSLLSWLKPPYLYVVTNGIIITIVASSKYYRSHHDRDEEDEIVVYGGGGYKIQTEEPIVNQHQASPRILEVKDLDTGAHFGFVVANLEAEELESEAVTAVVFDDEEEEKKIIDSAATAEDEIEEELKSVIMVENSDLVESDVIPPPMMIESENLPPIEKPLVTSRFGHRKLMKASQEGGRALRVTKPKKNETLENTWKMITEGKSTPLTRQLYRRSDTFGRGDSGGVDGEVKPVYKKSDTFRDRTNYYQLAETAKVRKEPSLSQEELNRRVEAFIKKFNEEMKLQRMESLRQYKEITSRGV”, the protein production result is “failed”.

For “MKKKLVIILSIICIIAGGYFTMEYLKHKEKEEFFWKTQETRVEKYIHYNVKDVKSITFIEHKISPMGIPSIEGYINDDKDLWFDASISTTENFEDKFSRSGELGKLIKDPEKSVSEIEKEEKEKKKELEHHHHHH”, the protein production result is on record as “not failed”.

Consider “MGTSDEEIDRLLGKLTPRARALLLNGATTWRTRAEPAVELRELVMSDGPAGVRGEAWDERSTSLLLPSASALAATWDEALVEDLGGLLAAEARRKGVDVLLAPTLNLHRSPLGGRHFECLSEDPELTGRIGAALVRGIQAHGVAATAKHYVANDSETDRLTVDVRVGERALREVYLAPFEAAVAAGVRLVMAGYNAVNGTTMTANALLTDPLKSEWGFDGVVVSDWGAVRGTTGTARAGLDLAMPGPDGPWGEALARAVAEGAVPEPAVDDKARRLLRLAAWLGALGGRDVSRSPVPGRPADSPGAEGADGGAGAGPSSGAEGLPGRGPAHGAKPSGPRPRRAGDGRALARRAVAAGAVLLANKDVLPLDPEHLGTVAVIGAHAARTRTQGGGSAGVFPRGEVSVLDGIRAELRGRARVVHVPGPRPDGPAPPLDPDTCTDPRSGLPGVLLRMLDADGRELYAERRRGGRLLEPRLVPGAHTVEIRARLCPRTGGSWSLGVAGFGRMSLTTDGRTLLEGDFPPSTDDPAVMHVNPPAQYATADLTAGRDTLLVARRELAPGTGRATVLVAAPPAPDVTASLAEAVRAAGAADAAVVVVGTTEHGESEGYDRTDLALGATQDALVRAVAAANPRTVAVVNSGGPVELPWREQAGAVLLAWFPGQEGGGGLADVLFGHAEPGGRLPTTWPAVLADAPVTRTRPDGGRLDYDEGLHLGHRGWLRHHRTPAYWFGHGLGYTTWRYEELTVPPVTRAGDGLTVRVRVRNTGARAGREVVQVYLARPASALDRPARWLAGYTAVRARPGETVTATVRVPARALRHWSVAEHAWRTEAGPCRVLAGRSAGDVPLAAEVEVVPTASA”, for which the protein production result is recorded as “failed”.

Regarding “MKSLYRSRMANHSKHGRPFTLSLPNRSQCVKIVATFAAVGLLATGGIISRSFYTSSTQAEPTTRVTAYSATDAEASRGNAREALGGDTAYVTVKINGKSRVVPGTNFTNVKSVLEAGNITLEPEDTVSPSLTTKVDEKTVITVSRAGASVEVSDSSIAFNVVKKETSSLPKGQEKVETEGEEGVMESTNLVTRSGDTVISSNMISSYVKKAPVDKVVLVGTGSTSTSSSSSSSSSTASVGTTVPAGEMQQWAHDYLISNGYTEADFTATVYIISHESGWSVSATNPSSGAYGLPQALPGSKMVSAGADWATNYQTQLKWFWGYCASRYGSIQGAYSYWLAHKCY”, the protein production entry is “failed”.
